The supplement of paper PMC10567573

B1: SPSB1 (parent)
chain: DMRDPTYRPLKQELQGLDYCKPTR

Variants of: B1
Test: protein stability index of a GFP-peptide fusion (GPS, HEK-293T) (PSI 1-6); higher = more stable
Conditions: c terminus: a fixed tail appended
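Further: lentivirally expressed fusions sorted by FACS into six bins by GFP to DsRed ratio, PSI derived from sequencing read proportions per bin multiplied by bin number.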

Variant | protein stability index
DMRDPTYRPLKQELEGLDYCKPTR | 3.87
DMRDPTYRPLKQELKGLDYCKPTR | 3.59
DMRDPTYRPLKQELIGLDYCKPTR | 3.05
DMRDPTYRPLKQELMGLDYCKPTR | 3.33
DMRDPTYRPLKQELWGLDYCKPTR | 2.53
DMRDPTYRPLKQELRGLDYCKPTR | 3.54
DMRDPTYRPLKQELSGLDYCKPTR | 3.59
DMRDPTYRPLKQELCGLDYCKPTR | 2.57
DMRDPTYRPLKQELVGLDYCKPTR | 2.73
DMRDPTYRPLKQELLGLDYCKPTR | 2.81
DMRDPTYRPLKQELNGLDYCKPTR | 3.52
DMRDPTYRPLKQELFGLDYCKPTR | 2.6
DMRDPTYRPLKQELPGLDYCKPTR | 2.67
DMRDPTYRPLKQELDGLDYCKPTR | 2.6
DMRDPTYRPLKQELAGLDYCKPTR | 3.32
DMRDPTYRPLKQELTGLDYCKPTR | 3.55
DMRDPTYRPLKQELYGLDYCKPTR | 3.4
DMRDPTYRPLKQELGGLDYCKPTR | 2.25
DMRDPTYRPLKQELHGLDYCKPTR | 2.7
DMRDPTYRPLKMELQGLDYCKPTR | 2.23
DMRDPTYRPLKCELQGLDYCKPTR | 2.74
DMRDPTYRPLKRELQGLDYCKPTR | 3.18
DMRDPTYRPLKIELQGLDYCKPTR | 2.35
DMRDPTYRPLKDELQGLDYCKPTR | 3.45

Variant | protein stability index
DMRDPTYRPLKYELQGLDYCKPTR | 3.12
DMRDPTYRPLKAELQGLDYCKPTR | 3.12
DMRDPTYRPLKTELQGLDYCKPTR | 3.43
DMRDPTYRPLKKELQGLDYCKPTR | 2.94
DMRDPTYRPLKNELQGLDYCKPTR | 3.17
DMRDPTYRPLKLELQGLDYCKPTR | 3.84
DMRDPTYRPLKGELQGLDYCKPTR | 2.48
DMRDPTYRPLKVELQGLDYCKPTR | 2.59
DMRDPTYRPLKEELQGLDYCKPTR | 2.87
DMRDPTYRPLKWELQGLDYCKPTR | 2.35
DMRDPTYRPLKFELQGLDYCKPTR | 2.67
DMRDPTYRPLKHELQGLDYCKPTR | 3.46
DMRDPTYRPLKPELQGLDYCKPTR | 3.04
DMRDPTYRPLKSELQGLDYCKPTR | 3.25
DMRDPTYRPLKQPLQGLDYCKPTR | 3.68
DMRDPTYRPLKQWLQGLDYCKPTR | 2.44
DMRDPTYRPLKQKLQGLDYCKPTR | 2.83
DMRDPTYRPLKQFLQGLDYCKPTR | 2.58
DMRDPTYRPLKQCLQGLDYCKPTR | 2.91
DMRDPTYRPLKQTLQGLDYCKPTR | 3.18
DMRDPTYRPLKQQLQGLDYCKPTR | 2.98
DMRDPTYRPLKQHLQGLDYCKPTR | 3.07
DMRDPTYRPLKQDLQGLDYCKPTR | 3.68
DMRDPTYRPLKQILQGLDYCKPTR | 2.62

Variant | protein stability index
DMRDPTYRPLKQGLQGLDYCKPTR | 3.59
DMRDPTYRPLKQMLQGLDYCKPTR | 2.48
DMRDPTYRPLKQLLQGLDYCKPTR | 2.42
DMRDPTYRPLKQALQGLDYCKPTR | 3.09
DMRDPTYRPLKQNLQGLDYCKPTR | 3.03
DMRDPTYRPLKQYLQGLDYCKPTR | 2.41
DMRDPTYRPLKQVLQGLDYCKPTR | 3.1
DMRDPTYRPLKQRLQGLDYCKPTR | 2.98
DMRDPTYRPLKQSLQGLDYCKPTR | 3.4
DMRDPTYRPLRQELQGLDYCKPTR | 3.54
DMRDPTYRPLSQELQGLDYCKPTR | 3.76
DMRDPTYRPLQQELQGLDYCKPTR | 3.62
DMRDPTYRPLTQELQGLDYCKPTR | 3.17
DMRDPTYRPLPQELQGLDYCKPTR | 3.3
DMRDPTYRPLYQELQGLDYCKPTR | 4.04
DMRDPTYRPLWQELQGLDYCKPTR | 2.5
DMRDPTYRPLVQELQGLDYCKPTR | 3.45
DMRDPTYRPLNQELQGLDYCKPTR | 4.04
DMRDPTYRPLKQEMQGLDYCKPTR | 3.68
DMRDPTYRPLKQENQGLDYCKPTR | 3.95
DMRDPTYRPLKQEEQGLDYCKPTR | 2.43
DMRDPTYRPLKQEIQGLDYCKPTR | 3.35
DMRDPTYRPLKQERQGLDYCKPTR | 3.42
DMRDPTYRPLKQEFQGLDYCKPTR | 3.43

Variant | protein stability index
DMRDPTYRPLKQEDQGLDYCKPTR | 3.83
DMRDPTYRPLKQEAQGLDYCKPTR | 4.04
DMRDPTYRPLKQECQGLDYCKPTR | 3.71
DMRDPTYRPLKQEGQGLDYCKPTR | 4.04
DMRDPTYRPLKQEPQGLDYCKPTR | 3.89
DMRDPTYRPLKQEQQGLDYCKPTR | 4.29
DMRDPTYRPLKQETQGLDYCKPTR | 4.28
DMRDPTYRPLKQEKQGLDYCKPTR | 4.5
DMRDPTYRPLKQEHQGLDYCKPTR | 4.03
DMRDPTYRPLKQESQGLDYCKPTR | 4.24
DMRDPTYRPLKQEYQGLDYCKPTR | 3.49
DMRDPTYRPLKQEWQGLDYCKPTR | 2.96
DMRDPTYRPLKQEVQGLDYCKPTR | 4.05
DMRDPTYRPLKQELQFLDYCKPTR | 2.24
DMRDPTYRPLKQELQCLDYCKPTR | 3.17
DMRDPTYRPLKQELQALDYCKPTR | 3.73
DMRDPTYRPLKQELQHLDYCKPTR | 3.1
DMRDPTYRPLKQELQDLDYCKPTR | 3.34
DMRDPTYRPLKQELQELDYCKPTR | 2.93
DMRDPTYRPLKQELQLLDYCKPTR | 3.45
DMRDPTYRPLKQELQKLDYCKPTR | 3.34
DMRDPTYRPLKQELQILDYCKPTR | 2.17
